Measurements published in patent US7479480B2, “Peptides that promote lipid efflux” (Lipid Sciences, Inc., priority 2006, dated 2009).
Ends that are not written are not given here.

Tests used:
SR-B1 = target: T1, SR-B1 (Rattus norvegicus, UniProt P97943); assay: SR-BI mediated cholesterol efflux; type: cell-based; conditions: for SR-BI Mediated Efflux % Per 4 h: minus blank; for cholesterol efflux from the Fu5AH cells (SRB1 pathway): result in words
T1 construct: endogenous in cells; host or cells: Fu5AH rat hepatoma cells
T1 sequence (P97943 1-509): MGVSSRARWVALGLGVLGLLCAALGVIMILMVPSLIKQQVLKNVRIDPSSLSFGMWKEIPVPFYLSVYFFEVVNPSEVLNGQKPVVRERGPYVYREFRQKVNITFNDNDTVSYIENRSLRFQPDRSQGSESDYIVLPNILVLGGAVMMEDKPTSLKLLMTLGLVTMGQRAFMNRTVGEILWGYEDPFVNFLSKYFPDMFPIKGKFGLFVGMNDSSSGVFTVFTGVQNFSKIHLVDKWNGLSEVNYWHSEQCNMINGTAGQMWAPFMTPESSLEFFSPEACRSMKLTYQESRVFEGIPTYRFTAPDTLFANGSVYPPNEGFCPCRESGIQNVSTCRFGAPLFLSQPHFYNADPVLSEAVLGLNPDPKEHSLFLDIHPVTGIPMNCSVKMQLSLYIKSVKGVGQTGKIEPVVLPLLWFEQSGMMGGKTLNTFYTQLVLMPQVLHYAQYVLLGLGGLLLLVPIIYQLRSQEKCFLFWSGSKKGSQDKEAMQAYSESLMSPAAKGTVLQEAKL
Source text: (§1) The methods employed in this study have been described in U.S. Pat. Nos. 7,029,863, 7,060,452, U.S. Patent Application Publication No. 2005/0191715, and in Moya et al., Arteriosclerosis & Thrombosis 1994:14:1056-1065 and Liu et al., J. Biol. Chem., 2003:278(44), 42976-42984. SR-B1 mediated cholesterol efflux was examined in FU5AH rat hepatoma cells and ABCA1 mediated cholesterol efflux was examined in J774 mouse macrophage cells as described in these references.
(§2) J774 macrophages and Fu5AH […] in culture were used to determine the specificity of SEQ ID NO: 602 to efflux cholesterol by the ABCA-I or SRBI pathways using the methods of de la Llera Moya, M., V., et al. “A cell culture system for screening human serum for ability to promote cellular cholesterol efflux. Relations between serum components and efflux, esterification, and transfer.” Arterioscler. Thromb. 14: 1056-1065 (1994). Anti-inflammatory properties were evaluated by determination of inhibition of expression of activated CD11B human monocytes and suppression of cytokine-induced vascular cell adhesion molecule-1, V-CAM, expression in human coronary artery endothelial cells (HCAECs).

[1] = tested on: ApoE knockout and LDL receptor knockout mice; assay: Aortic atherosclerosis in ApoE and LDL receptor knockout mice (Example 14); type: in vivo, mouse; conditions: 30 mg/kg ip three times per week, 4-5 or 8-10 weeks
Description: The mice receive 3 injections per week for either 4-6 or 8-10 weeks. After the completion of the injection, the amount of hardening of the arteries or atherosclerosis is determined in the control injected animals and peptide injected animals to determine if the injections of the synthetic peptide decreased development of atherosclerosis.
For infusion studies B and C, mice are injected ip with either placebo or a synthetic peptide of the present invention (30 mg/kg) three times per week for either 4 to 5 weeks (Infusion Study B) or 8 to 10 weeks (Infusion Study C). Blood for lipid and lipoprotein analyses is obtained at the beginning of the study (day 0) and every two weeks after placebo/peptide injection and at the completion of the study. At the completion of the study (4 to 5 weeks for Infusion Study B and 8 to 10 weeks for Infusion Study C), the animals are sacrificed, organs harvested for analyses of cholesterol content and for aortic atherosclerosis.
No more than 300 ul blood every two weeks is obtained from each mouse. • 4) At the end of Infusion Study B and C all mice are sacrificed by cervical dislocation following isoflurane anesthesia and organs are harvested for analyses of cholesterol as well as aortic atherosclerosis. Before intraperitoneal injections, brief inhaled analgesia is obtained by isoflurane utilizing the E-Z Rodent Anesthesia System in the procedure room. […]

ABCA1 = target: T2, ABCA1 (Mus musculus, UniProt P41233); assay: ABCA1 mediated cholesterol efflux; type: cell-based; parameters: +ABCA1 Cells / −ABCA1 Cells: unit not given here; conditions: for +ABCA1 Cells / −ABCA1 Cells / ABCA1 Mediated Efflux % Per 4 h: minus blank; for dose dependence of cholesterol efflux from cells containing the ABCA1 pathway (FIG. 3): range of 5 ug/ml to 30 ug/ml; for efflux of cholesterol from J774 macrophage cells (ABCA1 pathway): result in words; for cholesterol efflux via the ABCA-I pathway: Example 17, J774 macrophages
T2 construct: endogenous in cells; host or cells: J774 mouse macrophage cells
Source text: as §1, §2

CD11b = CD11b expression in stimulated monocytes by flow cytometry; type: cell-based, human; conditions: for PMA-induced CD11b expression in human monocytes: 20 μg/ml, PMA 1 μmol/L, FIG. 2
Description: Monocyte Isolation Peripheral whole blood (PWB) was drawn from healthy consenting individuals into syringes containing sodium citrate (final concentration—19.2 mM). Resting human monocytes were isolated from PWB by density centrifugation with Lymphoprep (Axis Shield). Mononuclear cells (MNCs) were collected and monocytes were further separated to purity using the Dynal negative isolation kit (Invitrogen). Monocytes were resuspended in phosphate buffered saline (PBS) and cell number was determined counting cell suspension on an automated hematology analyzer (Sysmex, KX-21N, USA).
Flow Cytometry 100 μL of monocytes were stimulated with either 1 μmol/L phorbol-myristate-acetate (PMA) or 1 μg/ml lipopolysaccharide (LPS) (Sigma, Australia) in the presence or absence of apoA-1 (20 μg/ml), or 20 μg/ml of the test peptide SEQ ID NO: 602 (Ac-[…]NH2), each tested separately. The cells were incubated with the FITC conjugated antibody to either the active epitope of CD11b (eBiosciences, USA, Clone CBRM1/5) or total CD11b (Serotec, USA, Clone ICRF44) for 15 min at 37° C. Cells were then fixed with 4% para-formaldehyde. Samples were controlled for by using the appropriately matched isotype matched negative control (FITC-anti-mouse IgG) (Serotec, USA, Clone W3/25). CD11b expression was measured by flow cytometry using FACS Calibur (Becton Dickinson). Analysis was conducted using the Cell Quest Pro software.
Statistical Analysis Values are presented as the mean±SD or percentage of control±SD. FACS results were analyzed for statistical significance using one-way ANOVA followed by Bonferroni post-hoc test. Significance was accepted at P<0.05.
as §2

[2] = tested on: vascular cell adhesion molecule-1; assay: Cytokine-induced V-CAM expression in human coronary artery endothelial cells; type: cell-based; conditions: initial data; p<0.05
Description: as §2

[3] = tested on: HeLa cells stably transfected with human ABCA1 cDNA; assay: Cholesterol and phospholipid efflux from ABCA1 cells; type: cell-based
Description: HeLa cells stably transfected with human ABCA1 cDNA (ABCA1 cells) and HeLa cells transfected with only a hygromycin-resistant control plasmid (control cells) are produced and grown in α-modified Eagle's medium (aMEM) plus 10% fetal calf serum, as described by Remaley et al. (Biochem. Biophys. Res. Commun. 280:818-823, 2001). […] Thromb. Vasc. Biol. 17:1813-1821, 1997). Percentage efflux is calculated after subtracting the radioactive counts in the blank media (aMEM plus 1 mg/ml of BSA), and expressed as the percent of total radioactive counts removed from the cells during the efflux period.
ABCA1 cells are used to assess the ability of apoA-I and synthetic peptides to efflux lipid from cells. […] The peptides of the present invention efflux approximately 2- to 4-fold more cholesterol and phospholipid from ABCA1 cells than from control cells. Both the peptides of the present invention and apoA-I began to show saturation for lipid efflux at approximately the same protein concentration of 10 μg/ml. The peptides of the present invention remove more cholesterol and phospholipids from control cells than apoA-I.
Cholesterol efflux from ABCA1 cells to apoA-I is first detectable after 2 hours and increases throughout the 30 hour efflux period. […]

[4] = tested on: HeLa cells transfected with only a hygromycin-resistant control plasmid; assay: Cholesterol and phospholipid efflux from control cells; type: cell-based, human; conditions: result in words
Description: HeLa cells stably transfected with human ABCA1 cDNA (ABCA1 cells) and HeLa cells transfected with only a hygromycin-resistant control plasmid (control cells) are produced and grown in α-modified Eagle's medium (aMEM) plus 10% fetal calf serum, as described by Remaley et al. (Biochem. Biophys. Res. Commun. 280:818-823, 2001). Cholesterol and phospholipid efflux is performed for 18 hours on noncholesterol-loaded cells radiolabeled with either cholesterol or choline (Remaley et al., Arterioscler. Thromb. Vasc. Biol. 17:1813-1821, 1997). Percentage efflux is calculated after subtracting the radioactive counts in the blank media (aMEM plus 1 mg/ml of BSA), and expressed as the percent of total radioactive counts removed from the cells during the efflux period.
ABCA1 cells are used to assess the ability of apoA-I and synthetic peptides to efflux lipid from cells. […] The peptides of the present invention efflux approximately 2- to 4-fold more cholesterol and phospholipid from ABCA1 cells than from control cells. Both the peptides of the present invention and apoA-I began to show saturation for lipid efflux at approximately the same protein concentration of 10 μg/ml. The peptides of the present invention remove more cholesterol and phospholipids from control cells than apoA-I. […]

[5] = FU5AH rat hepatoma cells, peptides at 30 μg/ml
[6] = J774 cells, peptides at 30 μg/ml
[7] = J774 mouse macrophage cells, peptides at 30 μg/ml
[8] = J774 cells, peptides at 30 μg/ml, listed as 5
[9] = controls: 2% human serum pool, Apo A-I @ 20 μg/ml
[10] = J774 cells, peptides at 30 μg/ml, listed as 3

T2 sequence (P41233 whole entry): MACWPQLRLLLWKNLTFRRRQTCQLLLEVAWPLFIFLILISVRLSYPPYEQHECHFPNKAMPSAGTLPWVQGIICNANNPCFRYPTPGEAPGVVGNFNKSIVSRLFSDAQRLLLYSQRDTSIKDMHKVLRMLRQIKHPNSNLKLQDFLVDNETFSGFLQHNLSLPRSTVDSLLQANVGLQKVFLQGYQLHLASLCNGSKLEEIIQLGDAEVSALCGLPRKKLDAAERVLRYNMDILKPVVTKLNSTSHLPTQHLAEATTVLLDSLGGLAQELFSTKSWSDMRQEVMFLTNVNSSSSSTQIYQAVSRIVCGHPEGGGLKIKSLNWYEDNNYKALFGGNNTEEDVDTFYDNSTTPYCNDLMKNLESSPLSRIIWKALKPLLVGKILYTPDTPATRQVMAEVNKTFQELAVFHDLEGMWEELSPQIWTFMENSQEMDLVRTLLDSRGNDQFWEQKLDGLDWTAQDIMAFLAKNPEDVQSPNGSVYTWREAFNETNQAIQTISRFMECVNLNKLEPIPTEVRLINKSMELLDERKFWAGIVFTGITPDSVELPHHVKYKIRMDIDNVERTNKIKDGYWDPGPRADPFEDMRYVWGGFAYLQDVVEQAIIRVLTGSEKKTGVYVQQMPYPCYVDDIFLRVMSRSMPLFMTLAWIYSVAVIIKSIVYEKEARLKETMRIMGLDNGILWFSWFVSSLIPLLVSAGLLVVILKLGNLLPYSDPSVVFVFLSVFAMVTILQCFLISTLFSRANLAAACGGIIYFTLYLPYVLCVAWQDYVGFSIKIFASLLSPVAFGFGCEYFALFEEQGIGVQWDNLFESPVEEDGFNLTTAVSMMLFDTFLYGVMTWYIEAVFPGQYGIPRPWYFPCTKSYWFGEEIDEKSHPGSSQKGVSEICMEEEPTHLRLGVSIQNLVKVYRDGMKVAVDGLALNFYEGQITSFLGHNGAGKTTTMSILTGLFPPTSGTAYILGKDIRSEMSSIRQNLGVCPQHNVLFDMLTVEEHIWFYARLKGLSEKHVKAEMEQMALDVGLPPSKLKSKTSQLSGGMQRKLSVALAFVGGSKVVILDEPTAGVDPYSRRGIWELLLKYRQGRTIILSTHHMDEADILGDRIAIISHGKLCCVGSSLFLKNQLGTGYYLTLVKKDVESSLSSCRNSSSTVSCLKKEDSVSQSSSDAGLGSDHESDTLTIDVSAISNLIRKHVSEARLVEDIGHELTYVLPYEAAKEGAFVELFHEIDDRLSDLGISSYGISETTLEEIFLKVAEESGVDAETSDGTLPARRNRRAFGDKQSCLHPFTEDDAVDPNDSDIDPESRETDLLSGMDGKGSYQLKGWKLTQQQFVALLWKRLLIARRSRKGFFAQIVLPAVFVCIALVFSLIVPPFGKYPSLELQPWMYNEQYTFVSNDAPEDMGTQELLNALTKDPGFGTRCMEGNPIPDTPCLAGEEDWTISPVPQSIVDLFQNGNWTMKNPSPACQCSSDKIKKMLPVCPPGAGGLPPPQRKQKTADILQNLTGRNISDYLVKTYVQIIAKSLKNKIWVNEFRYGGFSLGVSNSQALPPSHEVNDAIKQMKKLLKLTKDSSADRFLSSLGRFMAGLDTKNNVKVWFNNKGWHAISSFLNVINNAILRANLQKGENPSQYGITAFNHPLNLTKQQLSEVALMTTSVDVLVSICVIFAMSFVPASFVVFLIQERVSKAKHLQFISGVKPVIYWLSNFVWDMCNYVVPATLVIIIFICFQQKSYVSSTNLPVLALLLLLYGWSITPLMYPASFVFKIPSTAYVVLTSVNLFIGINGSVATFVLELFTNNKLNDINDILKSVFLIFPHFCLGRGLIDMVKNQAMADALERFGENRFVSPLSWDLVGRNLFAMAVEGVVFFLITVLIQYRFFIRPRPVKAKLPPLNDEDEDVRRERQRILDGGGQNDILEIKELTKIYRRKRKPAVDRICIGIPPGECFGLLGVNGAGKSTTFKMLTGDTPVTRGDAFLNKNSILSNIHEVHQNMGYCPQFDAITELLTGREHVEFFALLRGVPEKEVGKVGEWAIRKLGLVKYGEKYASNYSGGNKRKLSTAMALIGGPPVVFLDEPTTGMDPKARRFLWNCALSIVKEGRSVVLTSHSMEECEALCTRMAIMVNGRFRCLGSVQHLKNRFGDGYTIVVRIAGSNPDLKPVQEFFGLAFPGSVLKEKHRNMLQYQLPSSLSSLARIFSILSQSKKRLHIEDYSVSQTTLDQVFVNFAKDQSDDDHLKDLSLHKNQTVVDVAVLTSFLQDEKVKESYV

| Substance | SR-BI Mediated Efflux % Per 4 h (SR-B1; [5]) [% Per 4 h] | cholesterol efflux from the Fu5AH cells (SRB1 pathway) (SR-B1) | aortic atherosclerosis compared to controls [1] | +ABCA1 Cells (ABCA1; [6]) | −ABCA1 Cells (ABCA1; [6]) | ABCA1 Mediated Efflux % Per 4 h (ABCA1; [7]) [% Per 4 h] | dose dependence of cholesterol efflux from cells containing the ABCA1 pathway (FIG. 3) (ABCA1) | efflux of cholesterol from J774 macrophage cells (ABCA1 pathway) (ABCA1) | cholesterol efflux via the ABCA-I pathway (ABCA1) | PMA-induced CD11b expression in human monocytes (CD11b) | also measured |
| --- | --- | --- | --- | --- | --- | --- | --- | --- | --- | --- | --- |
| SPLLESAKVSALSALEEATKKKLSPLLESFKVSFLSALEEYTKKLNTQ [Peptide 4] | 0.10 | negligible or no effect | decrease aortic atherosclerosis | 12.420 ± 1.019 | 1.224 ± 0.121 | 11.20 | dose dependent stimulation | stimulated efflux of cholesterol |  |  |  |
| Ac-Ser Pro Leu Leu Glu Ser Ala Lys Val Ser Ala Leu Ser Ala Leu Glu Glu Ala Thr Lys Lys Lys Leu Ser Pro Leu Leu Glu Ser Phe Lys Val Ser Phe Leu Ser Ala Leu Glu Glu Tyr Thr Lys Lys Leu Asn Thr Gln-NH2 (Ac-SPLLESAKVSALSALEEATKKKLSPLLESFKVSFLSALEEYTKKLNTQ-NH2) [Peptide 1] | 0.15 | negligible or no effect | decrease aortic atherosclerosis | 20.338 ± 0.136 | 1.624 ± 0.126 | 18.71 | dose dependent stimulation | stimulated efflux of cholesterol | 15.34%+2.57 | decrease | SRB-1 pathway activity (cholesterol efflux) (SR-B1; Example 17, Fu5AH cells): no SRB-1 pathway activity; SR-BI Mediated Efflux % Per 4 h (SR-B1; FU5AH rat hepatoma cells, peptides at 30 μg/ml, listed as 5): 0.25 % Per 4 h; +ABCA1 Cells (ABCA1; [8]): 15.718 ± 0.123; −ABCA1 Cells (ABCA1; [8]): 1.215 ± 0.288; ABCA1 Mediated Efflux % Per 4 h (ABCA1; J774 mouse macrophage cells, peptides at 30 μg/ml, listed as 5): 14.50 % Per 4 h; PMA-induced CD11b expression in human monocytes (CD11b; listed as SEQ ID NO: 602): significantly reduced; Inhibition of expression of CD11B on human monocytes (CD11b; Example 17, p=<0.01, comparable to apo A-I): statistically significant; V-CAM-1 mRNA levels in HCAECs [2]: decreases |
| apolipoprotein A-I [Apo A-I] |  |  |  |  |  |  |  |  | 15.99%+2.07 | decrease | SR-BI Mediated Efflux % Per 4 h (SR-B1; [9]): 0.26 % Per 4 h; protein concentration at which lipid efflux begins to show saturation [3]: ~10 µg/mL; time at which cholesterol efflux from ABCA1 cells is first detectable ([3]; 30 hour efflux period): 2 h; +ABCA1 Cells (ABCA1; [9]): 20.682 ± 0.724; ABCA1 Mediated Efflux % Per 4 h (ABCA1; [9]): 18.97 % Per 4 h; −ABCA1 Cells (ABCA1; [9]): 1.713 ± 0.409; PMA-induced CD11b expression in human monocytes (CD11b; listed as ApoA1): significantly reduced; cholesterol efflux from control cells (time course) [4]: no significant increase above background |
| Ser Pro Leu Ser Asp Glu Lcu Arg Gln Arg Lcu Ala Ala Arg Lcu Glu Ala Leu Lys Glu Asn Lys Leu Ser Pro Leu Leu Glu Ser Phe Lys Val Ser Phe Leu Ser Ala Leu Glu Glu Tyr Thr Lys Lys Leu Asn Thr Gln (SPLSDELRQRLAARLEALKENKLSPLLESFKVSFLSALEEYTKKLNTQ) [Peptide 2] | 0.16 | negligible or no effect |  | 14.283 ± 0.545 | 1.205 ± 0.211 | 13.08 | dose dependent stimulation | stimulated efflux of cholesterol |  |  | +ABCA1 Cells (ABCA1; [10]): 13.447 ± 0.549; −ABCA1 Cells (ABCA1; [10]): 1.306 ± 0.261; ABCA1 Mediated Efflux % Per 4 h (ABCA1; J774 mouse macrophage cells, peptides at 30 μg/ml, listed as 3): 12.14 % Per 4 h |
